B1: 295 (nucleic acid, listed as Homo sapiens)
chain: ACTCGTGCGTGAGGCGAGAGGAGCCGGAGACGAGACCAGAGGCCGAACTCGGGTTCTGACAAGATGGCCGGGCTGCCCCGCAGGATCATCAAGGAAACCCAGCGTTTGCTGGCAGAACCAGTTCCTGGCATCAAAGCCGAACCAGATGAGAGCAACGCCCGTTATTTTCATGTGGTCATTGCTGGCCCTCAGGATTCCCCCTTTGAGGGAGGGACTTTTAAACTTGAACTATTCCTTCCAGAAGAATACCCAATGGCAGCCCCTAAAGTACGTTTCATGACCAAAATTTATCATCCTAATGTAGACAAGTTGGGAAGAATATGTTTAGATATTTTGAAAGATAAGTGGTCCCCAGCACTGCAGATCCGCACAGTTCTGCTATCGATCCAGGCCTTGTTAAGTGCTCCCAATCCAGATGATCCATTAGCAAATGATGTAGCGGAGCAGTGGAAGACCAACGAAGCCCAAGCCATAGAAACAGCTAGAGCATGGACTAGGCTATATGCCATGAATAATATTTAAATTGATACGATCATCAAGTGTGCATCACTTCTCCTGTTCTGCCAAGACTTCCTCCTCTTTGTTTGCATTTAATGGACACAGTCTTAGAAACATTACAGAATAAAAAAGCCCAGACATCTTCAGTCCTTTGGTGATTAAATGCACATTAGCAAATCTATGTCTTGTCCTGATTCACTGTCATAAAGCATGAGCAGAGGCTAGAAGTATCATCTGGATTGTTGTGAAACGTTTAAAAGCAGTGGCCCCTCCCTGCTTTTATTCATTTCCCCCATCCTGGTTTAAGTATAAAGCACTGTGAATGAAGGTAGTTGTCAGGTTAGCTGCAGGGGTGTGGGTGTTTTTATTTTATTTTATTTTATTTTATTTTTGAGGGGGGAGGTAGTTTAATTTTATGGGCTCCTTTCCCCCTTTTTTGGTGATCTAATTGCATTGGTTAAAAGCAGCTAACCAGGTCTTTAGAATATGCTCTAGCCAAGTCTAACTTTATTTAGACGCTGTAGATGGACAAGCTTGATTGTTGGAACCAAAATGGGAACATTAAACAAACATCACAGCCCTCACTAATAACATTGCTGTCAAGTGTAGATTCCCCCCTTCAAAAAAAGCTTGTGACCATTTTGTATGGCTTGTCTGGAAACTTCTGTAAATCTTATGTTTTAGTAAAATATTTTTTGTTATTCT
modifications: CDS (64)..(519)
B2: 89 (nucleic acid, listed as Homo sapiens)
chain: GTAGTGCGGCGCTGTTTAAAGATGGCGGCGGAGGAACCTCAGCAGCAGAAGCAGGAGCCGCTGGGCAGCGACTCCGAAGGTGTTAACTGTCTGGCCTATGATGAAGCCATCATGGCTCAGCAGGACCGAATTCAGCAAGAGATTGCTGTGCAGAACCCTCTGGTGTCAGAGCGGCTGGAGCTCTCGGTCCTATACAAGGAGTATGCTGAAGATGACAACATCTATCAACAGAAGATCAAGGACCTCCACAAAAAGTACTCGTACATCCGCAAGACCAGGCCTGACGGCAACTGTTTCTATCGGGCTTTCGGATTCTCCCACTTGGAGGCACTGCTGGATGACAGCAAGGAGTTGCAGCGGTTCAAGGCTGTGTCTGCCAAGAGCAAGGAAGACCTGGTGTCCCAGGGCTTCACTGAATTCACAATTGAGGATTTCCACAACACGTTCATGGACCTGATTGAGCAGGTGGAGAAGCAGACCTCTGTCGCCGACCTGCTGGCCTCCTTCAATGACCAGAGCACCTCCGACTACCTTGTGGTCTACCTGCGGCTGCTCACCTCGGGCTACCTGCAGCGCGAGAGCAAGTTCTTCGAGCACTTCATCGAGGGTGGACGGACTGTCAAGGAGTTCTGCCAGCAGGAGGTGGAGCCCATGTGCAAGGAGAGCGACCACATCCACATCATTGCGCTGGCCCAGGCCCTCAGCGTATCCATCCAGGTGGAGTACATGGACCGCGGCGAGGGCGGCACCACCAATCCGCACATCTTCCCTGAGGGCTCCGAGCCCAAGGTCTACCTTCTCTACCGGCCTGGACACTACGATATCCTCTACAAATAGGGCTGGCTCCAGCCCGCTGCTGCCCTGCTGCCCCCCTCTGCCAGGCGCTAGACATGTACAGAGGTTTTTCTGTGGTTGTAAATGGTCCTATTTCACCCCCTTCTTCCTGTCACATGACCCCCCCCCATGTTTTATTAAAGGGGGTGCTGGTGGTG
modifications: CDS (22)..(834)
B3: 85 (nucleic acid, listed as Homo sapiens)
chain: ATTTCCGGTTCCGGCTGCGGGCCGGTGAAGATATGGCGGCGTCTGCGTCTGCAGCTGCAGGGGAGGAGGACTGGGTCCTTCCCTCTGAAGTTGAAGTATTGGAGTCCATCTATCTAGATGAACTACAGGTGATTAAAGGAAATGGCAGAACTTCACCATGGGAGATCTACATCACTTTGCATCCTGCCACTGCAGAGGACCAGGATTCACAGTATGTCTGCTTCACTCTGGTGCTTCAGGTCCCAGCAGAGTATCCCCATGAGGTGCCACAGATCTCTATCCGAAATCCCCGAGGACTTTCAGATGAACAGATCCACACGATCTTACAGGTGCTGGGCCACGTGGCCAAGGCTGGGCTGGGCACTGCCATGCTGTATGAACTCATTGAGAAAGGGAAGGAAATTCTCACAGATAACAACATCCCTCATGGCCAGTGTGTCATCTGCCTCTATGGTTTCCAGGAGAAGGAGGCCTTTACCAAAACACCCTGTTACCACTACTTCCACTGCCACTGCCTTGCTCGGTACATCCAGCACATGGAGCAAGAGCTGAAGGCACAAGGACAGGAGCAGGAACAGGAACGGCAGCATGCTACAACCAAACAGAAGGCAGTCGGTGTGCAGTGTCCAGTGTGCAGAGAGCCCCTCGTGTATGATCTTGCCTCACTGAAAGCAGCCCCTGAACCCCAACAGCCCATGGAGCTGTACCAGCCCAGTGCAGAGAGCTTGCGCCAGCAAGAAGAACGCAAGCGGCTCTACCAGAGGCAGCAGGAGCGGGGGGGAATCATTGACCTTGAGGCTGAGCGAAACCGATACTTCATCAGCCTTCAGCAGCCTCCTGCCCCTGCGGAACCTGAGTCAGCTGTAGATGTCTCCAAAGGATCCCAACCACCCAGCACCCTTGCAGCAGAACTATCCACCTCACCAGCCGTCCAATCCACTTTGCCACCTCCTCTGCCTGTGGCGACCCAGCACATATGTGAGAAGATTCCAGGGACCAGGTCAAATCAGCAAAGGTTGGGCGAAACCCAGAAAGCTATGCTAGATCCCCCCAAGCCCAGTCGAGGTCCCTGGCGACAGCCCGAACGGAGGCACCCAAAGGGAGGGGAGTGCCACGCCCCTAAAGGTACCCGTGACACCCAGGAACTGCCACCTCCTGAGGGGCCCCTCAAGGAGCCCATGGACCTAAAGCCAGAACCCCATAGCCAAGGAGTTGAAGGTCCTCCACAAGAGAAGGGGCCTGGCAGCTGGCAGGGGCCCCCACCCCGCAGGACTCGGGACTGTGTTCGCTGGGAGCGCTCTAAGGGCCGGACACCCGGTTCTTCCTACCCTCGCCTGCCTCGGGGCCAGGGAGCATACCGGCCTGGTACTCGGAGGGAGTCCCTGGGCCTGGAATCTAAGGATGGTTCCTAGCAGGACTTGGTGGGGGGAACAGGGAATTGGGGATGGGAGGGAGGCAATAAAGATATTTGGCCTTCTTTGGCTTTCTTTGCTT
modifications: CDS (33)..(1409)
B4: 291 (nucleic acid, listed as Homo sapiens)
chain: CGCCATCCCTGACCCATGGCGCTGAAGAGGATTCAGAAAGAATTGAGTGATCTACAGCGCGATCCACCTGCTCACTGTTCAGCTGGACCTGTGGGAGATGACTTGTTCCACTGGCAAGCCACTATTATGGGGCCTCCTGATAGCGCATATCAAGGTGGAGTCTTCTTTCTCACTGTACATTTTCCGACAGATTATCCTTTTAAACCACCAAAGATTGCTTTCACAACAAAAATTTACCATCCAAACATAAACAGTAATGGAAGTATTTGTCTCGATATTCTGAGGTCACAATGGTCACCAGCTCTGACTGTATCAAAAGTTTTATTGTCCATATGTTCTCTACTTTGTGATCCTAATCCAGATGACCCCTTAGTACCAGATATTGCACAAATCTATAAATCAGACAAAGAAAAATACAACAGACATGCAAGAGAATGGACTCAGAAATATGCAATGTAA
modifications: CDS (16)..(456)
B5: 293 (nucleic acid, listed as Homo sapiens)
chain: GAGCATACACCGAGAGAGTGAGGAGCCAGACGACAAGCACACACTATGGCGCTGAAACGGATTAATAAGGAACTTAGTGATTTGGCCCGTGACCCTCCAGCACAATGTTCTGCAGGTCCAGTTGGGGATGATATGTTTCATTGGCAAGCCACAATTATGGGACCTAATGACAGCCCATATCAAGGCGGTGTATTCTTTTTGACAATTCATTTTCCTACAGACTACCCCTTCAAACCACCTAAGGTTGCATTTACAACAAGAATTTATCATCCAAATATTAACAGTAATGGCAGCATTTGTCTCGATATTCTAAGATCACAGTGGTCGCCTGCTTTAACAATTTCTAAAGTTCTTTTATCCATTTGTTCACTGCTATGTGATCCAAACCCAGATGACCCCCTAGTGCCAGAGATTGCACGGATCTATAAAACAGACAGAGATAAGTACAACAGAATATCTCGGGAATGGACTCAGAAGTATGCCATGTGATGCTACCTTAAAGTCAGAATAACCTGCATTATAGCTGGAATAAACTTTAAATTACTGTTCCTTTTTTGATTTTCTTATCCGGCTGCTCCCCTGATCAGACCTCATCTTTTTTAATTTTATTTTTTGTTTACCTCCCTCCATTCATTCACATGCTCATCTGAGAAGACTTAAGTTCTTCCAGCTTTGACAATAACTGCTTTTAGAAACTGTAAAGTAGTTACAAGAGAACAGTTGG
modifications: CDS (46)..(486)

tested on: STAT6; experiment: Screening of full-length cDNA clones for promotion of STAT6 activation (luciferase reporter N4×8-luc); format: cell-based; conditions: NIH3T3 cells cotransfected with N4×8-luc reporter and cDNA plasmid; 48 h culture, then mouse IL-4 0.5 ng/ml for 6 h
Summary of the method: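 NIH3T3 cells cotransfected with STAT6-responsive N4×8-luc reporter (100 ng) and full-length cDNA, cultured 48 h, then given mouse IL-4 at 0.5 ng/ml final for 6 h. Luciferase activity compared with reporter plus null-vector control.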

In order of falling “Activity = (luciferase activity of the gene of each SEQ ID NO:)/(luciferase activity of pME18S-FL3)” value:
1. B1  31.0
2. B5  25.8
3. B4  13.0
4. B3  11.5
5. B2  10.2
